# Reference: US9937235B2, “Lipidated peptides as anti-obesity agents” (USTAV ORGANICKE CHEMIE A BIOCHEMIE AKADEMIE VED CR, V.V.I, priority 2012, dated 2018)
# Where no end group is shown, it is not given here. [ ]: non-standard residue; d: D form. The star is where a group is joined. Phe(F5) = N[C@@H](Cc1c(F)c(F)c(F)c(F)c1F)C(=O)O; 1Nal = N[C@@H](Cc1cccc2ccccc12)C(=O)O; Stearoyl = CCCCCCCCCCCCCCCCCC(=O)*; Palmitoyl = CCCCCCCCCCCCCCCC(=O)*; Myristoyl = CCCCCCCCCCCCCC(=O)*; PheCl2 = dichlorophenylalanine; Lauroyl = CCCCCCCCCCCC(=O)*; PheNO2 = nitrophenylalanine; Decanoyl = CCCCCCCCCC(=O)*; Nle = CCCC[C@H](N)C(=O)O; Octanoyl = CCCCCCCC(=O)*; Sar = CNCC(=O)O
# B1: analog no. 39 (peptide)
# peptide: Myristoyl-TPDINPAWYTGR[Sar]IRPVGRF-NH2
# SMILES: CCCCCCCCCCCCCC(=O)N[C@H](C(=O)N1CCC[C@H]1C(=O)N[C@@H](CC(=O)O)C(=O)N[C@H](C(=O)N[C@@H](CC(N)=O)C(=O)N1CCC[C@H]1C(=O)N[C@@H](C)C(=O)N[C@@H](Cc1c[nH]c2ccccc12)C(=O)N[C@@H](Cc1ccc(O)cc1)C(=O)N[C@H](C(=O)NCC(=O)N[C@@H](CCCNC(=N)N)C(=O)N(C)CC(=O)N[C@H](C(=O)N[C@@H](CCCNC(=N)N)C(=O)N1CCC[C@H]1C(=O)N[C@H](C(=O)NCC(=O)N[C@@H](CCCNC(=N)N)C(=O)N[C@@H](Cc1ccccc1)C(N)=O)C(C)C)[C@@H](C)CC)[C@@H](C)O)[C@@H](C)CC)[C@@H](C)O
# B2: analog no. 35 (peptide)
# peptide: Palmitoyl-SRAHQHS[Nle]ETRTPDINPAWYTGRGIRPVGRY-NH2
# SMILES: CCCCCCCCCCCCCCCC(=O)N[C@@H](CO)C(=O)N[C@@H](CCCNC(=N)N)C(=O)N[C@@H](C)C(=O)N[C@@H](Cc1c[nH]cn1)C(=O)N[C@@H](CCC(N)=O)C(=O)N[C@@H](Cc1c[nH]cn1)C(=O)N[C@@H](CO)C(=O)N[C@@H](CCCC)C(=O)N[C@@H](CCC(=O)O)C(=O)N[C@H](C(=O)N[C@@H](CCCNC(=N)N)C(=O)N[C@H](C(=O)N1CCC[C@H]1C(=O)N[C@@H](CC(=O)O)C(=O)N[C@H](C(=O)N[C@@H](CC(N)=O)C(=O)N1CCC[C@H]1C(=O)N[C@@H](C)C(=O)N[C@@H](Cc1c[nH]c2ccccc12)C(=O)N[C@@H](Cc1ccc(O)cc1)C(=O)N[C@H](C(=O)NCC(=O)N[C@@H](CCCNC(=N)N)C(=O)NCC(=O)N[C@H](C(=O)N[C@@H](CCCNC(=N)N)C(=O)N1CCC[C@H]1C(=O)N[C@H](C(=O)NCC(=O)N[C@@H](CCCNC(=N)N)C(=O)N[C@@H](Cc1ccc(O)cc1)C(N)=O)C(C)C)[C@@H](C)CC)[C@@H](C)O)[C@@H](C)CC)[C@@H](C)O)[C@@H](C)O
# notes: Tyr at position 31 in place of Phe
# B3: analog no. 34 (peptide)
# peptide: SRAHQHS[Nle]ETRTPDINPAWYTGRGIRPVGRY-NH2
# modifications: N-terminus assumed
# SMILES: CCCC[C@H](NC(=O)[C@H](CO)NC(=O)[C@H](Cc1c[nH]cn1)NC(=O)[C@H](CCC(N)=O)NC(=O)[C@H](Cc1c[nH]cn1)NC(=O)[C@H](C)NC(=O)[C@H](CCCNC(=N)N)NC(=O)[C@@H](N)CO)C(=O)N[C@@H](CCC(=O)O)C(=O)N[C@H](C(=O)N[C@@H](CCCNC(=N)N)C(=O)N[C@H](C(=O)N1CCC[C@H]1C(=O)N[C@@H](CC(=O)O)C(=O)N[C@H](C(=O)N[C@@H](CC(N)=O)C(=O)N1CCC[C@H]1C(=O)N[C@@H](C)C(=O)N[C@@H](Cc1c[nH]c2ccccc12)C(=O)N[C@@H](Cc1ccc(O)cc1)C(=O)N[C@H](C(=O)NCC(=O)N[C@@H](CCCNC(=N)N)C(=O)NCC(=O)N[C@H](C(=O)N[C@@H](CCCNC(=N)N)C(=O)N1CCC[C@H]1C(=O)N[C@H](C(=O)NCC(=O)N[C@@H](CCCNC(=N)N)C(=O)N[C@@H](Cc1ccc(O)cc1)C(N)=O)C(C)C)[C@@H](C)CC)[C@@H](C)O)[C@@H](C)CC)[C@@H](C)O)[C@@H](C)O
# notes: as for B2
# B4: analog no. 38 (peptide)
# peptide: TPDINPAWYTGR[Sar]IRPVGRF-NH2
# modifications: N-terminus assumed
# SMILES: CC[C@H](C)[C@H](NC(=O)CN(C)C(=O)[C@H](CCCNC(=N)N)NC(=O)CNC(=O)[C@@H](NC(=O)[C@H](Cc1ccc(O)cc1)NC(=O)[C@H](Cc1c[nH]c2ccccc12)NC(=O)[C@H](C)NC(=O)[C@@H]1CCCN1C(=O)[C@H](CC(N)=O)NC(=O)[C@@H](NC(=O)[C@H](CC(=O)O)NC(=O)[C@@H]1CCCN1C(=O)[C@@H](N)[C@@H](C)O)[C@@H](C)CC)[C@@H](C)O)C(=O)N[C@@H](CCCNC(=N)N)C(=O)N1CCC[C@H]1C(=O)N[C@H](C(=O)NCC(=O)N[C@@H](CCCNC(=N)N)C(=O)N[C@@H](Cc1ccccc1)C(N)=O)C(C)C
# Molecular target: T1, rat PrRP receptor in RC-4B/C cells (rat, UniProt Q64121 1-370)
# T1 construct: whole, on cells; also called the rat receptor; GPR10
# T1 sequence (looked up): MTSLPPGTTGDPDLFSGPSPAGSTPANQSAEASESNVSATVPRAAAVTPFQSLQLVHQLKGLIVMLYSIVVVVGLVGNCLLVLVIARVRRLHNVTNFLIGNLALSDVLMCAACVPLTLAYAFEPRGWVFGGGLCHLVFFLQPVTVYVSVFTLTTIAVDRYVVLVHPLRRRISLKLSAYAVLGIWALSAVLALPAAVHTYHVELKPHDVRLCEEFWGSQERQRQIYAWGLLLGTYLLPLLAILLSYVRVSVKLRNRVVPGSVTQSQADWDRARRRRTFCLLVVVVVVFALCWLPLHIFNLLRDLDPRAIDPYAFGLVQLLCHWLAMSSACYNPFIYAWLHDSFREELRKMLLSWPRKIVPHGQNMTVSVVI
# Assay: competition with 125I-rat PrRP31 on RC-4B/C cells
row,Binder,Ki [nM]
1,SRAHQHS[Nle]ETRTPDINPAWYTGRGIRPVGR[PheNO2]-NH2 [analog no. 27],19.9
2,B1,0.32
3,Palmitoyl-SRAHQHS[Nle]ETRTPDINPAWYTGRGIRPVGR[Phe(F5)]-NH2 [analog no. 33],0.51
4,Octanoyl-SRAHQHS[Nle]ETRTPDINPAWYTGRGIRPVGRF-NH2 [analog no. 15],0.98
5,Decanoyl-SRAHQHS[Nle]ETRTPDINPAWYTGRGIRPVGRF-NH2 [analog no. 16],0.65
6,Myristoyl-SRAHQHS[Nle]ETRTPDINPAWYTGRGIRPVGR[PheNO2]-NH2 [analog no. 28],1.97
7,Myristoyl-SRAHQHS[Nle]ETRTPDINPAWYTGRGIRPVGRF-NH2 [analog no. 18],0.69
8,Lauroyl-SRAHQHS[Nle]ETRTPDINPAWYTGRGIRPVGRF-NH2 [analog no. 17],0.39
9,SRAHQHS[Nle]ETRTPDINPAWYTGRGIRPVGR[PheCl2]-NH2 [analog no. 24],3.84
10,SRAHQHS[Nle]ETRTPDINPAWYTGRGIRPVGR[Phe(F5)]-NH2 [analog no. 32],9.69
11,SRAHQHS[Nle]ETRTPDINPAWYTGRGIRPVGRF-NH2 [analog no. 14],1.28
12,B2,0.44
13,Myristoyl-SRAHQHS[Nle]ETRTPDINPAWYTGRGIRPVGR[1Nal]-NH2 [analog no. 22],3.96
14,Palmitoyl-SRAHQHS[Nle]ETRTPDINPAWYTGRGIRPVGR[1Nal]-NH2 [analog no. 23],2.17
15,B3,3.25
16,SRAHQHS[Nle]ETRTPDINPAWYTGRGIRPVGR[1Nal]-NH2 [analog no. 21],102
17,[code f][code r]GVPRIGRGTYWAPNIDPT-NH2 [analog no. 36],5200
18,Palmitoyl-SRAHQHS[Nle]ETRTPDINPAWYTGRGIRPVGRF-NH2 [analog no. 19],0.51
19,Palmitoyl-SRAHQHS[Nle]ETRTPDINPAWYTGRGIRPVGR[PheCl2]-NH2 [analog no. 26],1.3
20,Myristoyl-SHQRPADTHWYPRG[Nle]FPTIGRITARNGEVSR (printed without a C-terminal amide) [analog no. 31],123
21,Myristoyl-SRAHQHS[Nle]ETRTPDINPAWYTGRGIRPVGR[PheCl2]-NH2 [analog no. 25],1.79
22,Stearoyl-SRAHQHS[Nle]ETRTPDINPAWYTGRGIRPVGRF-NH2 [analog no. 20],0.96
23,B4,7.94
24,Palmitoyl-SRAHQHS[Nle]ETRTPDINPAWYTGRGIRPVGR[PheNO2]-NH2 [analog no. 29],0.58

# Molecular target: T2, human PrRP receptor, GPR10, transfected in CHO cells (human, UniProt P49683 1-370)
# T2 construct: whole, on cells; also called human GPR10 receptor; the human receptor GPR10 in CHO cells
# T2 sequence (looked up): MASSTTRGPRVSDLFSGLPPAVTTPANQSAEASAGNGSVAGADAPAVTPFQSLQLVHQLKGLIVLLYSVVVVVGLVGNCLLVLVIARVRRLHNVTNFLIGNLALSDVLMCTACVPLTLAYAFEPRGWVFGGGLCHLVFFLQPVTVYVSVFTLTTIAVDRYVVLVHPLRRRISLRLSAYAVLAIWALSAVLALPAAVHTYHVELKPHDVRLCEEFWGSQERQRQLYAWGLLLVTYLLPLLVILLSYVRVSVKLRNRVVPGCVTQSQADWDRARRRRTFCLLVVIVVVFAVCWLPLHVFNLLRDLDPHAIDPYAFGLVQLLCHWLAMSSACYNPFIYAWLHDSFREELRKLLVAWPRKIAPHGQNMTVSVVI
# Assay: competition with 125I-human PrRP31 on CHO cells with transfected human GPR10
# Description: CHO cells with transfected human PrRP receptor, GPR10 (Perkin Elmer, USA) were grown on 24-well plates coated with polyethyleneimine. The cells were grown to the optimal density of 40-80 thousand cells per well.
# Plates were incubated for 60 minutes at room temperature. After incubation, the cells were solubilized in 0.1 mol/l solution of NaOH and the radioactivity bound to the cells was counted using a γ-counter. The experiments were performed in duplicate and repeated at least three times.
row,Binder,Ki [nM]
1,SRAHQHS[Nle]ETRTPDINPAWYTGRGIRPVGR[PheNO2]-NH2 [analog no. 27],4.8
2,B1,3.12
3,Palmitoyl-SRAHQHS[Nle]ETRTPDINPAWYTGRGIRPVGR[Phe(F5)]-NH2 [analog no. 33],1.92
4,Octanoyl-SRAHQHS[Nle]ETRTPDINPAWYTGRGIRPVGRF-NH2 [analog no. 15],1.53
5,Decanoyl-SRAHQHS[Nle]ETRTPDINPAWYTGRGIRPVGRF-NH2 [analog no. 16],1.46
6,Myristoyl-SRAHQHS[Nle]ETRTPDINPAWYTGRGIRPVGR[PheNO2]-NH2 [analog no. 28],1.59
7,Myristoyl-SRAHQHS[Nle]ETRTPDINPAWYTGRGIRPVGRF-NH2 [analog no. 18],0.71
8,Lauroyl-SRAHQHS[Nle]ETRTPDINPAWYTGRGIRPVGRF-NH2 [analog no. 17],1.19
9,SRAHQHS[Nle]ETRTPDINPAWYTGRGIRPVGR[PheCl2]-NH2 [analog no. 24],2.27
10,SRAHQHS[Nle]ETRTPDINPAWYTGRGIRPVGR[Phe(F5)]-NH2 [analog no. 32],8.59
11,SRAHQHS[Nle]ETRTPDINPAWYTGRGIRPVGRF-NH2 [analog no. 14],1.92
12,B2,1.57
13,Myristoyl-SRAHQHS[Nle]ETRTPDINPAWYTGRGIRPVGR[1Nal]-NH2 [analog no. 22],1.33
14,Palmitoyl-SRAHQHS[Nle]ETRTPDINPAWYTGRGIRPVGR[1Nal]-NH2 [analog no. 23],4.27
15,B3,2.02
16,SRAHQHS[Nle]ETRTPDINPAWYTGRGIRPVGR[1Nal]-NH2 [analog no. 21],34.5
17,[code f][code r]GVPRIGRGTYWAPNIDPT-NH2 [analog no. 36],6290
18,Palmitoyl-SRAHQHS[Nle]ETRTPDINPAWYTGRGIRPVGRF-NH2 [analog no. 19],3.03
19,Palmitoyl-SRAHQHS[Nle]ETRTPDINPAWYTGRGIRPVGR[PheCl2]-NH2 [analog no. 26],1.05
20,Myristoyl-SHQRPADTHWYPRG[Nle]FPTIGRITARNGEVSR (printed without a C-terminal amide) [analog no. 31],262
21,Myristoyl-SRAHQHS[Nle]ETRTPDINPAWYTGRGIRPVGR[PheCl2]-NH2 [analog no. 25],0.95
22,Stearoyl-SRAHQHS[Nle]ETRTPDINPAWYTGRGIRPVGRF-NH2 [analog no. 20],5.39
23,B4,4.51
24,Palmitoyl-SRAHQHS[Nle]ETRTPDINPAWYTGRGIRPVGR[PheNO2]-NH2 [analog no. 29],0.77
